Test results as given in PMC7694065.

Biological target: recombinant Hbl B (hemolysin BL component B) with N-terminal strep tag (Bacillus cereus) (UniProt P80172)

recombinant Hbl B (hemolysin BL component B) with N-terminal strep tag (from UniProt P80172 32-375) (natural protein)
binding of rHbl B to Vero cells (flow cytometry, mAb 1G8-Alexa 488) after 10 min heat treatment over a temperature gradient; minimum 7% FL1-positive cells at 60 °C, increase from 70 °C upwards (% FL1-positive cells): 93
